Test results taken from patent US20100104555A1 (Scripps Research, published 2010).

B3: E2412-611 (other)
chain: QLINTNGSWHINSTALNCNESLNTGWLAGLFYQHKFNSSGCPERLASCRRLTDFAQGWGPISYANGSGLDERPYCWHYPPRPCGIVPAKSVCGPVYCFTPSPVVVGTTDRSGAPTYSWGANDTDVFVLNNTRPPLGNWFGCTWMNSTGFTKVCGAPPCVIGGVGNNTLLCPTDCFRKHPEATYSRCGSGPWITPRCMVDYLEDYKDDDDK
B8: maltose binding protein fused-large extracellular loop of CD81 (receptor)
chain: FVNKDQIAKDVKQFYDQALQQAVVDDDANNAKAVVKTFHETLDCCGSSTLTALTTSVLKNNLCPSGSNIISNLFKEDCHQKIDDLFSGK
notes: also called CD81-LEL; MBP-fused CD81-LEL
B9: E2492-645 (other)
chain: RPCGIVPAKSVCGPVYCFTPSPVVVGTTDRSGAPTYSWGANDTDVFVLNNTRPPLGNWFGCTWMNSTGFTKVCGAPPCVIGGVGNNTLLCPTDCFRKHPEATYSRCGSGPWITPRCMVDYPYRLWHYPCTINYTIFKVRMYVGGVEHRLEAACNLEDYKDDDDK
B13: E2456-645 (other)
chain: LASCRRLTDFAQGWGPISYANGSGLDERPYCWHYPPRPCGIVPAKSVCGPVYCFTPSPVVVGTTDRSGAPTYSWGANDTDVFVLNNTRPPLGNWFGCTWMNSTGFTKVCGAPPCVIGGVGNNTLLCPTDCFRKHPEATYSRCGSGPWITPRCMVDYPYRLWHYPCTINYTIFKVRMYVGGVEHRLEAACNLEDYKDDDDK

Legend:
[1] = target: B8; test: capture ELISA
[2] = target: B8; test: capture ELISA, coated CD81-LEL, 293T supernatant
[3] = target: vaccinia-expressed E1E2 (isolate HCV-1) (hepatitis C virus genotype 1a, isolate …, UniProt P26664 192-383; P26664 384-746); test: ELISA on lectin-captured E1E2; apparent affinity = half-maximal binding
E1E2 of HCV isolate H77 [4] = target: T1, E1E2 of HCV isolate H77 (hepatitis C virus genotype 1a, isolate …, UniProt P27958 192-383; P27958 384-746); test: ELISA, mAb inhibits E1E2 (H77) binding to coated CD81-LEL
E1E2 of HCV isolate H77 [5] = target: T1, E1E2 of HCV isolate H77; test: ELISA on lectin-captured E1E2; apparent affinity = half-maximal binding
E1E2 of HCV isolate H77 [6] = target: T1, E1E2 of HCV isolate H77; test: cell-based or functional assay
E2412-589 [7] = target: T2, E2412-589 (hepatitis C virus isolate H77, UniProt P27958 412-588); test: capture ELISA, coated CD81-LEL, 293T supernatant
E2412-574 [8] = target: T3, E2412-574 (hepatitis C virus isolate H77, UniProt P27958 412-574); test: capture ELISA, coated CD81-LEL, 293T supernatant
E2412-589 [9] = target: T2, E2412-589; test: capture ELISA, coated mAb, 293T supernatant
E2456-645 = target: B13; test: capture ELISA, coated mAb, 293T supernatant
E2412-574 [10] = target: T3, E2412-574; test: capture ELISA, coated mAb, 293T supernatant
E2492-645 = target: B9; test: capture ELISA, coated mAb, 293T supernatant
E2412-611 = target: B3; test: capture ELISA, coated mAb, 293T supernatant
[11] = target: B8; test: capture ELISA, coated CD81-LEL captures Flag-tagged E2 mutant

B1: E2ΔTM (other)
chain: ETHVTGGNAGRTTAGLVGLLTPGAKQNIQLINTNGSWHINSTALNCNESLNTGWLAGLFYQHKFNSSGCPERLASCRRLTDFAQGWGPISYANGSGLDERPYCWHYPPRPCGIVPAKSVCGPVYCFTPSPVVVGTTDRSGAPTYSWGANDTDVFVLNNTRPPLGNWFGCTWMNSTGFTKVCGAPPCVIGGVGNNTLLCPTDCFRKHPEATYSRCGSGPWITPRCMVDYPYRLWHYPCTINYTIFKVRMYVGGVEHRLEAACNWTRGERCDLEDRDRSELSPLLLSTTQWQVLPCSFTTLPALSTGLIHLHQNIVDVQYLYGVGSSIASWAIKWELEDYKDDDDK
**Q.** Does B1 bind [1]?
**A.** binds

B2: E2412-645 (other)
chain: QLINTNGSWHINSTALNCNESLNTGWLAGLFYQHKFNSSGCPERLASCRRLTDFAQGWGPISYANGSGLDERPYCWHYPPRPCGIVPAKSVCGPVYCFTPSPVVVGTTDRSGAPTYSWGANDTDVFVLNNTRPPLGNWFGCTWMNSTGFTKVCGAPPCVIGGVGNNTLLCPTDCFRKHPEATYSRCGSGPWITPRCMVDYPYRLWHYPCTINYTIFKVRMYVGGVEHRLEAACNLEDYKDDDDK
**Q.** Does B2 bind [1]?
**A.** binds

**Q.** Does B3 bind [2]?
**A.** no binding

B4: MAb AR3D (antibody, V domains shown)
VH: LEQSGAEVKKPGSSVKVSCKASGDTFRSYVITWARQAPGQGLEWMGAIIPFFGTTNLAQKFQGRVTITADESTKTVYMDLSSLRSDDTAVYYCAKAGDLSVGGVLAGGVPHLRHFDPWGQGTLVTVSS
VL: ELTQSPGTLSLSPGERATLSCRAGQTVASNSLAWYQHKPGQAPRLLIYGASIRASGIPDRFSGSGSGTDFTLTISRLEPEDFAVYYCQQYGLSPSTFGQGTRLEIKR
notes: also called IgG1 AR3D
**Q.** B4 was tested. Which EC50 [3] did it give?
**A.** 2.4 nM

B5: MAb AR1A (antibody, V domains shown)
VH: LEQSGAEVKKPGSSVKVSCRASGSPYSSYTITWVRQAPGQGLEWMGGIILMTGKANYAQKFQGRVTITADRATATAYMEMSSLTSDDTAIYYCARDPYVYAGDDVRSLSRWGQGTPVIVSS
VL: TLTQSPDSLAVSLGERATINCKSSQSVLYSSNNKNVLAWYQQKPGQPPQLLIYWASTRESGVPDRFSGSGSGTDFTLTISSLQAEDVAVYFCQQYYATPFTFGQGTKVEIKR
notes: also called IgG1 AR1A
**Q.** For B5, which IC50 (E1E2 of HCV isolate H77 [4]) is on record?
**A.** 5.7 nM

**Q.** And the EC50 (E1E2 of HCV isolate H77 [5])?
**A.** 3.8 nM

**Q.** What about the EC50 [3] of the same binder?
**A.** 2.6 nM

**Q.** What about the “Neutralizing activity (IC50), HCVpp” value (E1E2 of HCV isolate H77 [6]) of the same binder?
**A.** > 50 µg/mL

B6: MAb AR2A (antibody, V domains shown)
VH: LEQSGAEMKKPGASLKVSCKTSGYTFDDYGVTWVRQAPGQGLEWMGWISAYSGNTFYARKFQGRVTMTTDPSTRTAYMELRSLRSDDTAVYFCARDRGLAINGVVFPYFGLDVWGQGTTVTVSS
VL: ELTQSPVSLPVTPGEPASISCRSSQSLLHSNGNHYLDWYLQKPGQSPQLLMYLGSNRASGVPDRFSGSGSGTDFTLKISRVEAEDVGVYYCMQGLQTPWTFGQGTKVEIKR
notes: also called IgG1 AR2A
**Q.** B6 was tested. Which EC50 (E1E2 of HCV isolate H77 [5]) did it give?
**A.** 1.6 nM

**Q.** And the EC50 [3]?
**A.** 3.1 nM

**Q.** And the “Neutralizing activity (IC50), HCVpp” value (E1E2 of HCV isolate H77 [6])?
**A.** 1 µg/mL

B7: E2412-661 (other)
chain: QLINTNGSWHINSTALNCNESLNTGWLAGLFYQHKFNSSGCPERLASCRRLTDFAQGWGPISYANGSGLDERPYCWHYPPRPCGIVPAKSVCGPVYCFTPSPVVVGTTDRSGAPTYSWGANDTDVFVLNNTRPPLGNWFGCTWMNSTGFTKVCGAPPCVIGGVGNNTLLCPTDCFRKHPEATYSRCGSGPWITPRCMVDYPYRLWHYPCTINYTIFKVRMYVGGVEHRLEAACNWTRGERCDLEDRDRSELEDYKDDDDK
**Q.** Does B7 bind [1]?
**A.** binds

**Q.** What does the source list for B8?
**A.** binding result (E2412-589 [7]): no binding; binding result (E2412-574 [8]): no binding

**Q.** Does B9 bind [2]?
**A.** no binding

B10: MAb AR3C (antibody, V domains shown)
VH: LEQSGAEVKKPGSSVKVSCETSGGTLDNYALNWVRQAPGQGLEWIGGVVPLFGTTRNAQKFQGRVTISDDKSTGTGHMELRSLRSEDTAVYYCVRSVTPRYCGGGFCYGEFDYWGQGTLVTVSS
VL: ELTQSPATLSVSPGERATLSCRASQSVSSNLAWYQQKPGQAPRLLIYGASTRATGIPARFSGSGSGTDFTLTVSRLEPEDSAVYFCQQYRSPLTFGGGTKVEIKR
notes: also called IgG1 AR3C
**Q.** B10 was tested. Which IC50 (E1E2 of HCV isolate H77 [4]) did it give?
**A.** 2 nM

**Q.** Does B10 bind (E2412-589 [9])?
**A.** no binding

**Q.** Does B10 bind (E2456-645)?
**A.** no binding

**Q.** Does B10 bind (E2412-574 [10])?
**A.** no binding

**Q.** Does B10 bind (E2492-645)?
**A.** no binding

**Q.** Does B10 bind (E2412-611)?
**A.** no binding

**Q.** And the EC50 (E1E2 of HCV isolate H77 [5])?
**A.** 2.3 nM

**Q.** And the EC50 [3]?
**A.** 1.4 nM

**Q.** And the “Neutralizing activity (IC50), HCVpp” value (E1E2 of HCV isolate H77 [6])?
**A.** 1 µg/mL

B11: MAb AR3B (antibody, V domains shown)
VH: LEQSGPEVKKPGSSVKVSCKDSGDTFNEPVTWVRQAPGQGLEWIGGIIPAFGVTKYAQKFQGRVIISADASTATAYLELSSLRSEDTAVYYCAKVGLRGIVMVGGLAMNWLDPWGQGTQVTVSS
VL: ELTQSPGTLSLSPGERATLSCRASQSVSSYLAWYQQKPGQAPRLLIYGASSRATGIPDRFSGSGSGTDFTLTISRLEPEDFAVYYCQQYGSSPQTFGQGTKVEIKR
notes: also called IgG1 AR3B
**Q.** B11 was tested. Which EC50 [3] did it give?
**A.** 2 nM

B12: MAb AR1B (antibody, V domains shown)
VH: LESGGGLVQPGGSLRLSCEASGYYFSSFAMSWVRQTPGKGLEWVSSIAGGTLGRTSYRDSVKGRFTISRDNSKNTVFLHMNNLRPEDTAVYYCAKDPLLFAGGPNWFDHWGQGTLVTVSS
VL: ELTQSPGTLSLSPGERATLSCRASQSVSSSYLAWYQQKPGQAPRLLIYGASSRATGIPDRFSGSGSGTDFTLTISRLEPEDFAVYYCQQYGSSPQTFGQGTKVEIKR
notes: also called IgG1 AR1B
**Q.** How did the EC50 (E1E2 of HCV isolate H77 [5]) turn out when B12 was run?
**A.** 0.6 nM

**Q.** What about the EC50 [3] of the same binder?
**A.** 0.4 nM

**Q.** And the “Neutralizing activity (IC50), HCVpp” value (E1E2 of HCV isolate H77 [6])?
**A.** > 50 µg/mL

**Q.** Does B13 bind [2]?
**A.** no binding

B14: E2ΔN9 (other)
chain: QLINTNGSWHINSTALNCNESLNTGWLAGLFYQHKFNSSGCPERLASCRRLTDFAQGWGPISYANGSGLDERPYCWHYPPRPCGIVPAKSVCGPVYCFTPSPVVVGTTDRSGAPTYSWGANDTDVFVLNNTRPPLGNWFGCTWMNSTGFTKVCGAPPCGSSGCPTDCFRKHPEATYSRCGSGPWITPRCMVDYPYRLWHYPCTINYTIFKVRMYVGGVEHRLEAACNLEDYKDDDDK
**Q.** Does B14 bind [11]?
**A.** binds

B15: E2ΔN5 (other)
chain: QLINTNGSWHINSTALNCNESLNTGWLAGLFYQHKFNSSGCPERLASCGSSGCWHYPPRPCGIVPAKSVCGPVYCFTPSPVVVGTTDRSGAPTYSWGANDTDVFVLNNTRPPLGNWFGCTWMNSTGFTKVCGAPPCVIGGVGNNTLLCPTDCFRKHPEATYSRCGSGPWITPRCMVDYPYRLWHYPCTINYTIFKVRMYVGGVEHRLEAACNLEDYKDDDDK
**Q.** Does B15 bind [11]?
**A.** binds

B16: E2ΔN5N9 (other)
chain: QLINTNGSWHINSTALNCNESLNTGWLAGLFYQHKFNSSGCPERLASCGSSGCWHYPPRPCGIVPAKSVCGPVYCFTPSPVVVGTTDRSGAPTYSWGANDTDVFVLNNTRPPLGNWFGCTWMNSTGFTKVCGAPPCGSSGCPTDCFRKHPEATYSRCGSGPWITPRCMVDYPYRLWHYPCTINYTIFKVRMYVGGVEHRLEAACNLEDYKDDDDK
**Q.** Does B16 bind [11]?
**A.** binds
